29 sequences from the supplement of paper PMC10567573 can be followed below.

This data set is described as follows: protein stability index of a GFP-peptide fusion (GPS, HEK-293T) (PSI 1-6); higher = more stable. As to conditions: c terminus: a fixed tail appended.

± gives the standard deviation.
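Further: 24-mer peptide tiles fused after GFP, lentivirally expressed, FACS-sorted into six equal bins by GFP/DsRed ratio, decoded by Illumina sequencing, PSI is the read-weighted mean bin number.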

Turning to VCSVRGGEGRSRGSANDYKDTLGK [KRT71], the protein stability index by setting is: (treatment: DMSO) 4.68 ± 0.32; (treatment: MLN4924 1 uM, 8 h) 4.79 ± 0.18.
On the same counts, the results for VDNHFNLLTTSPVFPHYIEKPLGR [TRIM43] are 3.05 ± 0.4 and 2.96 ± 0.7.
Turning to VDNSCDWALGVCNNSWIRKNSTMV [TRIM43], the protein stability index worked out at 2.49 ± 0.34 (treatment: DMSO) and 2.5 ± 0.44 (treatment: MLN4924 1 uM, 8 h).
On the same counts, the results for VDSKPELQRVLEHRRRNQLIKKKK [FAM107A] are 4.54 ± 0.2 and 4.61 ± 0.39.
On the same counts, the results for VEECQAALQNKDTYEPFCKVPVIT [KCTD10] are 4.06 ± 0.15 and 4.12 ± 0.3.
VEILMILFAFMLVYPKEFHLNRGN [PPEF2] yielded a protein stability index (treatment: MLN4924 1 uM, 8 h) of 3.58 ± 0.62.
In the case of VEKQADTLNVIELNVQKTVDYTGQ [STX11], the protein stability index is, setting by setting: (treatment: DMSO) 4.6 ± 0.21; (treatment: MLN4924 1 uM, 8 h) 4.58 ± 0.15.
On the same counts, the results for VERALQLPREPGDSAQFTKALAII [FEM1A] are 3.1 ± 0.051 and 2.8 ± 0.31.
Regarding VESSLNVKTKKNAPSATIHQGEEE [FBXO34], the protein stability index by setting is: (treatment: DMSO) 5.37 ± 0.22; (treatment: MLN4924 1 uM, 8 h) 5.49 ± 0.2.
On the same counts, the results for VETSAKNAININELFIEISRRIPS [RAB22A] are 2.34 ± 0.21 and 2.29 ± 0.52.
Turning to VFDAEGYVKPQSCIDIVIRHVAPI [MOSPD3], the protein stability index reads like this: (treatment: DMSO) 2.19 ± 0.16; (treatment: MLN4924 1 uM, 8 h) 2.19 ± 0.51.
On the same counts, the results for VFDNAIRAALISRRHLQFWKSHLR [RHOBTB2] are 2.23 ± 0.38 and 2.1 ± 0.3.
On the same counts, the results for VFVGNQLIPQPLDSEEDEKMEEDI [PCMTD1] are 4.99 ± 0.2 and 5.07 ± 0.22.
Turning to VGGGFGGGFGGGDGGLLSGNEKIT [KRT15], the protein stability index (treatment: DMSO) was determined as 4.04 ± 0.39 and the protein stability index (treatment: MLN4924 1 uM, 8 h) was determined as 4.16 ± 0.14.
On the same counts, the results for VGLNTIADLWYLFGDLSLSLVTVG [POMT2] are 3.71 ± 0.08 and 3.16 ± 0.79.
On the same counts, the results for VGQSLRIKEQEVCKLQEQLEATVK [SASS6] are 4.15 ± 0.44 and 4.26 ± 0.19.
On the same counts, the results for VGTGTFGRVHLVKEKTAKHFFALK [PRKX] are 2.46 ± 0.15 and 2.85 ± 0.17.
For the sequence VHKTKEQFGQDGPISVHCSAGVGR [PTPRD], the protein stability index (treatment: DMSO) stood at 4.02 ± 0.23 and the protein stability index (treatment: MLN4924 1 uM, 8 h) was 4.15 ± 0.25.
On the same counts, the results for VHRDLKPENLLLASKSKGAAVKLA [CAMK2D] are 3.58 ± 0.77 and 3.42 ± 0.065.
For the sequence VIKDKDDSVDAQNICHVWHMNVEA [RNF180], the protein stability index reads like this: (treatment: DMSO) 3.98 ± 0.047; (treatment: MLN4924 1 uM, 8 h) 3.66 ± 0.17.
On the same counts, the results for VKGLFKSENCPKVISCEFAHNSNW [LARP4] are 2.17 ± 0.24 and 2.4 ± 0.24.
On the same counts, the results for VKWLSFHSGYDFGYLIKILTNSNL [CNOT7] are 2.58 ± 0.21 and 2.86 ± 0.69.
On the same counts, the results for VLALGLRTDVGITHQHWQQFEPQL [RSAD1] are 2.23 ± 0.39 and 2.35 ± 0.21.
Take VLELHHSKLDTTKALNLLPANTQI [VPS39]: the protein stability index runs as follows: (treatment: DMSO) 3.03 ± 0.14; (treatment: MLN4924 1 uM, 8 h) 3.12 ± 0.15.
On the same counts, the results for VLLHGPPGTGKTSLCKALAQKLTI [TRIP13] are 2.58 ± 0.6 and 2.31 ± 0.53.
In the case of VLNEEGICTQKCALNWTDIPVAME [VPS39], the protein stability index was determined as 3.43 ± 0.18 (treatment: DMSO) and 3.39 ± 0.28 (treatment: MLN4924 1 uM, 8 h).
On the same counts, the results for VMLKRIHSLYRRTGASFQKAQQEF [SCAMP3] are 2.49 ± 0.35 and 2.68 ± 0.46.
On the same counts, the results for VNLQVATYSKFQPQSPDFLDITNP [UFD1] are 2.53 ± 0.23 and 2.57 ± 0.27.
With VNRRISIVGFGLYGSIHGPTDYQV [BTBD1], the protein stability index was 2.65 ± 0.77 (treatment: DMSO) and 2.45 ± 1.1 (treatment: MLN4924 1 uM, 8 h).
